T1: DVL3, Q92997
T1 sequence (Q92997 244-331, limits assumed, looked up): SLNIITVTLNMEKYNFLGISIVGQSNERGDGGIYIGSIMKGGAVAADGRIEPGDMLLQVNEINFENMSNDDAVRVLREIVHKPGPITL

T2: APBA1_1, Q02410
T2 sequence (Q02410 651-752, limits assumed, looked up): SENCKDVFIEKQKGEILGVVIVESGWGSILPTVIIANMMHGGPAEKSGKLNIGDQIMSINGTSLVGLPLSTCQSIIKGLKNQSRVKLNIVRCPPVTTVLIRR

T3: LIN7C, Q9NUP9
T3 sequence (Q9NUP9 88-185, limits assumed, looked up): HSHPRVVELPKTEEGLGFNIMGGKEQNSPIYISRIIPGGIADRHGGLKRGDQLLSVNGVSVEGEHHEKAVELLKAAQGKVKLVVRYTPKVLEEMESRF

T4: GRIP1_5, Q9Y3R0
T4 sequence (Q9Y3R0 568-668, limits assumed, looked up): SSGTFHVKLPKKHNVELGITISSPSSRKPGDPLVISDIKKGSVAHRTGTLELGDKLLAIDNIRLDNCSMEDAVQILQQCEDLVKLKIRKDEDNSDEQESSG

T5: PDZD2_2, O15018
T5 sequence (O15018 329-429, limits assumed, looked up): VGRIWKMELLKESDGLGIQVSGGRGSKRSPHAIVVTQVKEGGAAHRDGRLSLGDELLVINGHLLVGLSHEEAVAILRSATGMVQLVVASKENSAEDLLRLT

T6: SNTG2, Q9NY99
T6 sequence (Q9NY99 68-166, limits assumed, looked up): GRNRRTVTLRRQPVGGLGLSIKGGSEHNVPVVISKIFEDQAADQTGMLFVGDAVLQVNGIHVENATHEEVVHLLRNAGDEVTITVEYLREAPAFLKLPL

T7: NHERF3_4, Q5T2W1
T7 sequence (Q5T2W1 373-468, limits assumed, looked up): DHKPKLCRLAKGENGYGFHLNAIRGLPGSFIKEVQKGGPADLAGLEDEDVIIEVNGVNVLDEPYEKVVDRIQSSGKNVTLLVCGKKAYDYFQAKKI

T8: MPDZ_12, O75970
T8 sequence (O75970 1857-1958, limits assumed, looked up): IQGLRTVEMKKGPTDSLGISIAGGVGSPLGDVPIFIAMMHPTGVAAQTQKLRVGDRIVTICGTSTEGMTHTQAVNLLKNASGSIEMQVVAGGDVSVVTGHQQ

T9: LNX2_3, Q8N448
T9 sequence (Q8N448 463-564, limits assumed, looked up): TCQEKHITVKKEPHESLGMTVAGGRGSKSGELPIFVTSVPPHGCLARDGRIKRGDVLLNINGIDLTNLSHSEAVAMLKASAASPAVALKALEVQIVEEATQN

T10: APBA1_2, Q02410
T10 sequence (Q02410 742-832, limits assumed, looked up): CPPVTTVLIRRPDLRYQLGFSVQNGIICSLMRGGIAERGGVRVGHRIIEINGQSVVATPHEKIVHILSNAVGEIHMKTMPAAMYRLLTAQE

T11: SNTG1, Q9NSN8
T11 sequence (Q9NSN8 52-150, limits assumed, looked up): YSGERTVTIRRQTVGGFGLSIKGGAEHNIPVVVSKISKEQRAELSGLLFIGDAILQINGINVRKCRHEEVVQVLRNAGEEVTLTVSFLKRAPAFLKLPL

B1: PTPRZ1, P23471 (peptide)
chain: NIAESLESLV
B2: MARCHF3, Q86UD3 (peptide)
chain: VKRNSKETVV
B3: ZSCAN30, Q86W11 (peptide)
chain: MQHQRTHTRV
B4: SCN8A, Q9UQD0 (peptide)
chain: RQKEVRESKC
B5: TRPV6, Q9H1D0 (peptide)
chain: EDGESWEYQI

Key:
Experiment in all cases: holdup assay
Parameters in all cases: key: below the threshold = too weak to quantify, mostly under pKd 3.1 to 4
Settings in all cases: plain residues with an end cap or a label only (N-terminal biotin on a linker: ado-ado)
DVL3, Q92997 = target: T1, DVL3, Q92997
APBA1_1, Q02410 = target: T2, APBA1_1, Q02410
DLG4_3, P78352 = target: DLG4_3, P78352
LIN7C, Q9NUP9 = target: T3, LIN7C, Q9NUP9
LIMK2, P53671 = target: LIMK2, P53671
GORASP2, Q9H8Y8 = target: GORASP2, Q9H8Y8
GRIP1_5, Q9Y3R0 = target: T4, GRIP1_5, Q9Y3R0
PDZD2_2, O15018 = target: T5, PDZD2_2, O15018
MAST2, Q6P0Q8 = target: MAST2, Q6P0Q8
DLG1_1, Q12959 = target: DLG1_1, Q12959
FRMPD2_1, Q68DX3 = target: FRMPD2_1, Q68DX3
SNTG2, Q9NY99 = target: T6, SNTG2, Q9NY99
NHERF3_4, Q5T2W1 = target: T7, NHERF3_4, Q5T2W1
GRIP2_7, Q9C0E4 = target: GRIP2_7, Q9C0E4
GIPC2, Q8TF65 = target: GIPC2, Q8TF65
PTPN3, P26045 = target: PTPN3, P26045
DLG4_1, P78352 = target: DLG4_1, P78352
Inadl_8, Q8NI35 = target: Inadl_8, Q8NI35
Inadl_10, Q8NI35 = target: Inadl_10, Q8NI35
NHERF4_4, Q86UT5 = target: NHERF4_4, Q86UT5
MPDZ_12, O75970 = target: T8, MPDZ_12, O75970
GRIP2_4, Q9C0E4 = target: GRIP2_4, Q9C0E4
LNX2_3, Q8N448 = target: T9, LNX2_3, Q8N448
APBA1_2, Q02410 = target: T10, APBA1_2, Q02410
IL16_3, Q14005 = target: IL16_3, Q14005
SNTG1, Q9NSN8 = target: T11, SNTG1, Q9NSN8
SCRIB_2, Q14160 = target: SCRIB_2, Q14160
Sequence of SCRIB_2, Q14160 (Q14160 857-960): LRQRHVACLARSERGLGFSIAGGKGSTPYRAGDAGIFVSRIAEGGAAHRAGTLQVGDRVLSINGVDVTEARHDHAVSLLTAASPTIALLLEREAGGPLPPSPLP

Sequence of FRMPD2_1, Q68DX3 (Q68DX3 770-861): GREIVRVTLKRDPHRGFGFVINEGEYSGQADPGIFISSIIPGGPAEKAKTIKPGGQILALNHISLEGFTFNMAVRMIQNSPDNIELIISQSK
Sequence of GRIP2_4, Q9C0E4 (Q9C0E4 446-548): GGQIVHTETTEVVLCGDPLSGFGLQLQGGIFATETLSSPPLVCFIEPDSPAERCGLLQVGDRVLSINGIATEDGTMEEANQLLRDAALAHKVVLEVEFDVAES
Sequence of LIMK2, P53671 (P53671 143-248): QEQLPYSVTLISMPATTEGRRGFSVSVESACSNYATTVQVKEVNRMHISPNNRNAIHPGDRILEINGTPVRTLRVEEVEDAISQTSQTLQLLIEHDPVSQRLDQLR
Sequence of MAST2, Q6P0Q8 (Q6P0Q8 1099-1202): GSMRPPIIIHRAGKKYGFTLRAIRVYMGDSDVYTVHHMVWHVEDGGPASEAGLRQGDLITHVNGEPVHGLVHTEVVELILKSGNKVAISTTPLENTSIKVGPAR
Sequence of DLG4_3, P78352 (P78352 306-403): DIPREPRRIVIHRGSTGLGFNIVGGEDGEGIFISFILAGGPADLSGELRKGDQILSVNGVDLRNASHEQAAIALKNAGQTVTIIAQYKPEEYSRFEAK
Sequence of PTPN3, P26045 (P26045 505-587): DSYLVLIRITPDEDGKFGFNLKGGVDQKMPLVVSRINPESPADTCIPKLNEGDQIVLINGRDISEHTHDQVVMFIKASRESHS
Sequence of Inadl_8, Q8NI35 (Q8NI35 1425-1530): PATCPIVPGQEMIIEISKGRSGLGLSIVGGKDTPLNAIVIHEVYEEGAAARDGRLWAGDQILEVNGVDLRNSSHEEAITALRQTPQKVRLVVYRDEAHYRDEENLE
Sequence of GIPC2, Q8TF65 (Q8TF65 112-203): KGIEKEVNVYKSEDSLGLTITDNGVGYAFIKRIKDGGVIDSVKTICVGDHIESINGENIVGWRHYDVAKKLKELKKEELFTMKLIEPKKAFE
Sequence of NHERF4_4, Q86UT5 (Q86UT5 464-550): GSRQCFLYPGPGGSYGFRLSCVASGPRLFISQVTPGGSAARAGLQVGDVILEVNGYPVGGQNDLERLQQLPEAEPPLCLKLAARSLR
Sequence of Inadl_10, Q8NI35 (Q8NI35 1673-1763): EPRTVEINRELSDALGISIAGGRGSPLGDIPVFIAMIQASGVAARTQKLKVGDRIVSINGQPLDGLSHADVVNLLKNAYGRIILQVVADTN
Sequence of IL16_3, Q14005 (Q14005 1107-1207): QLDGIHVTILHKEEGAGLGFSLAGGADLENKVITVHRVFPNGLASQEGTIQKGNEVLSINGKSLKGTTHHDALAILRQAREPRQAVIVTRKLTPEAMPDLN
Sequence of GRIP2_7, Q9C0E4 (Q9C0E4 934-1023): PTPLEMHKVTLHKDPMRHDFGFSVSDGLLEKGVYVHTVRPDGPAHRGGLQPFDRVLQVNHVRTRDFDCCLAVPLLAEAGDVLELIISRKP
Sequence of DLG4_1, P78352 (P78352 62-152): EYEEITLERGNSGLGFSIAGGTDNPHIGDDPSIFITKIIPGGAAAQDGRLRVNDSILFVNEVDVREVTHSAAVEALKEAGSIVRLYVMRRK

Binder | pKd (DVL3, Q92997) | pKd (APBA1_1, Q02410) | pKd (DLG4_3, P78352) | pKd (LIN7C, Q9NUP9) | pKd (LIMK2, P53671) | pKd (GORASP2, Q9H8Y8) | pKd (GRIP1_5, Q9Y3R0) | pKd (PDZD2_2, O15018) | pKd (MAST2, Q6P0Q8) | pKd (DLG1_1, Q12959) | pKd (FRMPD2_1, Q68DX3) | pKd (SNTG2, Q9NY99) | pKd (NHERF3_4, Q5T2W1) | pKd (GRIP2_7, Q9C0E4) | pKd (GIPC2, Q8TF65) | pKd (PTPN3, P26045) | pKd (DLG4_1, P78352) | pKd (Inadl_8, Q8NI35) | pKd (Inadl_10, Q8NI35) | pKd (NHERF4_4, Q86UT5) | further results
B1 | below the threshold | below the threshold | below the threshold | 4.08 | below the threshold | below the threshold | below the threshold | 5.37 | 4.79 | 4.57 | below the threshold | 4.34 | below the threshold | below the threshold | below the threshold | 4.64 | 4.65 | below the threshold | below the threshold | below the threshold | pKd (MPDZ_12, O75970): below the threshold; pKd (GRIP2_4, Q9C0E4): below the threshold; pKd (LNX2_3, Q8N448): below the threshold; pKd (APBA1_2, Q02410): below the threshold; pKd (IL16_3, Q14005): below the threshold; pKd (SNTG1, Q9NSN8): 4.94; pKd (SCRIB_2, Q14160): 3.66
B2 | below the threshold | below the threshold | 4.94 | 3.95 | below the threshold | 4.6 | below the threshold | 4.17 | 4.68 | 5.48 | 3.8 | 4.54 | below the threshold | below the threshold | below the threshold | 4.79 | 5.48 | below the threshold | below the threshold | below the threshold | pKd (MPDZ_12, O75970): below the threshold; pKd (GRIP2_4, Q9C0E4): below the threshold; pKd (LNX2_3, Q8N448): below the threshold; pKd (APBA1_2, Q02410): 3.88; pKd (IL16_3, Q14005): below the threshold; pKd (SNTG1, Q9NSN8): 4.13; pKd (SCRIB_2, Q14160): 3.89
B3 | below the threshold | below the threshold | 4.22 | below the threshold | below the threshold | 4.38 | below the threshold | 3.95 | 5.21 | 4.41 | 3.88 | 3.86 | 3.51 | below the threshold | 3.48 | below the threshold | 4.59 | 4.16 | below the threshold | below the threshold | pKd (MPDZ_12, O75970): below the threshold; pKd (GRIP2_4, Q9C0E4): below the threshold; pKd (LNX2_3, Q8N448): below the threshold; pKd (APBA1_2, Q02410): 3.52; pKd (IL16_3, Q14005): below the threshold; pKd (SNTG1, Q9NSN8): below the threshold; pKd (SCRIB_2, Q14160): 3.79
B4 | below the threshold | below the threshold | 4.6 | 3.84 | below the threshold | below the threshold | below the threshold | 3.94 | 4.82 | below the threshold | below the threshold | 4.58 | below the threshold | below the threshold | 4.05 | 4.6 | below the threshold | 3.95 | below the threshold | below the threshold | pKd (MPDZ_12, O75970): below the threshold; pKd (GRIP2_4, Q9C0E4): below the threshold; pKd (LNX2_3, Q8N448): below the threshold; pKd (APBA1_2, Q02410): below the threshold; pKd (IL16_3, Q14005): below the threshold; pKd (SNTG1, Q9NSN8): 3.77; pKd (SCRIB_2, Q14160): 3.82
B5 | below the threshold | below the threshold | below the threshold | 3.72 | below the threshold | 4.22 | below the threshold | 4.66 | 4.78 | below the threshold | below the threshold | below the threshold | below the threshold | 3.61 | below the threshold | 4.13 | below the threshold | below the threshold | below the threshold | 3.94 | pKd (MPDZ_12, O75970): below the threshold; pKd (GRIP2_4, Q9C0E4): below the threshold; pKd (LNX2_3, Q8N448): below the threshold; pKd (APBA1_2, Q02410): below the threshold; pKd (IL16_3, Q14005): below the threshold; pKd (SNTG1, Q9NSN8): 3.82; pKd (SCRIB_2, Q14160): below the threshold

— article PMC9482650, “Quantitative fragmentomics allow affinity mapping of interactomes” (Nature Communications, 2022)
